From the RNAGym collection of RNA variant scans (doi:10.7554/elife.90254) come the findings set out here.

B1: LINE1-full (parent)
chain: UACGUAGGUGGUUUUCCCCUGAUAGUGCUAAGGGGGCCUGGAAGUUUGGACUGGGCAGAGCUCAACACAGCGUGGCAAAGUGGCUGUGGCUAGACUGCCUCUCUGGAUUCCUCGUCACUCAGCAGGGCAUCUCUGAGAGAAAUGCC

This data set covers variants of B1. Nature of the data set: self-cleavage, relative activity (ratio to wild type); higher = more cleavage; in vitro, sequencing; the parent is a self-cleaving ribozyme.
As to UACGUAGGUGGUUUUCCCCUGAUAGUGCUAAGGGGGCCUGGAAGUUUGGACUGGGCAGAGCUCAACACAGCGUGGCAAAGUGGCUGUGGCUAGACUGCCUCUCUGGAUUCCCCGUCACUCAGCAAGGCAUCUCUGAGAGAAAUGCC [U112C G125A], the self-cleavage came out at 1.6. In the case of UACGUAGGUGGUUUUCCCCUGAUAGUGCUAAGGGGGCCUGGAAGUUUGGACUGGGCAGAGCUCAACACAGCGUGGCAAAGUGGCUGUGGCUAGACUGCCUCUCUGGAUUCCUAGUCACUCAGCAGGGCAUCUCCGAGAGAAAUGCC [C113A U134C] it was 0.33; in that of UACGUAGGUGGUUUUCCCCUGAUAGUGCUAAGGGGGCCUGGAAGUUUGGACUGGGCAGAGCUCAACACAGCGUGGCAAAGUGGCUGUGGCUAGACUGCCUCUCUGGAUUCCCCGUCACUCAGCAGGGCAUCUCUGAGAAAAAUGCC [U112C G139A], 1.36.

Consider UACGUAGGUGGUUUUCCCCUGAUAGUGCUAAGGGGGCCUGGAAGUUUGGACUGGGCAGAGCUCAACACAGCGUGGCAAAGUGGCUGUGGCUAGACUGCCUCUCUGGAUUCCGCGUCACUCAGCAGGGCAUCUCUGAGAGAAGUGCC [U112G A142G], for which the self-cleavage was 1.27.

Take UACGUAGGUGGUUUUCCCCUGAUAGUGCUAAGGGGGCCUGGAAGUUUGGACUGGGCAGAGCUCAACACAGCGUGGCAAAGUGGCUGUGGCUAGACUGCCUCUCUGGAUUCCCCGUCACUCAGCAGGGCAUCGCUGAGAGAAAUGCC [U112C U132G]: the self-cleavage amounted to 1.53.

For the variant UACGUAGGUGGUUUUCCCCUGAUAGUGCUAAGGGGGCCUGGAAGUUUGGACUGGGCAGAGCUCAACACAGCGUGGCAAAGUGGCUGUGGCUAGACUGCCUCUCUGGAUUCCUUGUCACUCGGCAGGGCAUCUCUGAGAGAAAUGCC [C113U A121G], the self-cleavage was determined as 0.68.

In the case of UACGUAGGUGGUUUUCCCCUGAUAGUGCUAAGGGGGCCUGGAAGUUUGGACUGGGCAGAGCUCAACACAGCGUGGCAAAGUGGCUGUGGCUAGACUGCCUCUCUGGAUUCCGCGUCACUCAGCAGGGCAUCUCUGAGAAAAAUGCC [U112G G139A], the self-cleavage worked out at 1.15. In the case of UACGUAGGUGGUUUUCCCCUGAUAGUGCUAAGGGGGCCUGGAAGUUUGGACUGGGCAGAGCUCAACACAGCGUGGCAAAGUGGCUGUGGCUAGACUGCCUCUCUGGAUUCCCCGUCACUCAGCAGGGCAUCUCUGAGAGAGAUGCC [U112C A141G] it was 1.57; in that of UACGUAGGUGGUUUUCCCCUGAUAGUGCUAAGGGGGCCUGGAAGUUUGGACUGGGCAGAGCUCAACACAGCGUGGCAAAGUGGCUGUGGCUAGACUGCCUCUCUGGAUUCCCCGUCACUCAGCAGGGCAUCUCCGAGAGAAAUGCC [U112C U134C], 1.23; in that of UACGUAGGUGGUUUUCCCCUGAUAGUGCUAAGGGGGCCUGGAAGUUUGGACUGGGCAGAGCUCAACACAGCGUGGCAAAGUGGCUGUGGCUAGACUGCCUCUCUGGAUUCCCCGUCACUCAGCAGGGCAUCUCAGAGAGAAAUGCC [U112C U134A], 0.61. Turning to UACGUAGGUGGUUUUCCCCUGAUAGUGCUAAGGGGGCCUGGAAGUUUGGACUGGGCAGAGCUCAACACAGCGUGGCAAAGUGGCUGUGGCUAGACUGCCUCUCUGGAUUCCUAGUCACUCAGCAGGGCACCUCUGAGAGAAAUGCC [C113A U130C], the self-cleavage came to 0.44.

Consider UACGUAGGUGGUUUUCCCCUGAUAGUGCUAAGGGGGCCUGGAAGUUUGGACUGGGCAGAGCUCAACACAGCGUGGCAAAGUGGCUGUGGCUAGACUGCCUCUCUGGAUUCCCCGUCACUCAGCAGGGCAUCUCUGAGAGAAAUACC [U112C G144A], for which the self-cleavage came out at 1.58. In the case of UACGUAGGUGGUUUUCCCCUGAUAGUGCUAAGGGGGCCUGGAAGUUUGGACUGGGCAGAGCUCAACACAGCGUGGCAAAGUGGCUGUGGCUAGACUGCCUCUCUGGAUUCCCCGUCACUCAGCAGGGCAUCUCUAAGAGAAAUGCC [U112C G135A] it was 1.44; in that of UACGUAGGUGGUUUUCCCCUGAUAGUGCUAAGGGGGCCUGGAAGUUUGGACUGGGCAGAGCUCAACACAGCGUGGCAAAGUGGCUGUGGCUAGACUGCCUCUCUGGAUUCCCCGUCACUCAGCAGGGCAUCUCUGAGAGAAAUGAC [U112C C145A], 1.39. With UACGUAGGUGGUUUUCCCCUGAUAGUGCUAAGGGGGCCUGGAAGUUUGGACUGGGCAGAGCUCAACACAGCGUGGCAAAGUGGCUGUGGCUAGACUGCCUCUCUGGAUUCCGCGUAACUCAGCAGGGCAUCUCUGAGAGAAAUGCC [U112G C116A] the figure was 1.57. As for UACGUAGGUGGUUUUCCCCUGAUAGUGCUAAGGGGGCCUGGAAGUUUGGACUGGGCAGAGCUCAACACAGCGUGGCAAAGUGGCUGUGGCUAGACUGCCUCUCUGGAUUCCUAGUCACUCAGCAGGGCAUCUCUGGGAGAAAUGCC [C113A A136G], the self-cleavage was found to be 0.91.

With UACGUAGGUGGUUUUCCCCUGAUAGUGCUAAGGGGGCCUGGAAGUUUGGACUGGGCAGAGCUCAACACAGCGUGGCAAAGUGGCUGUGGCUAGACUGCCUCUCUGGAUUCCCCGCCACUCAGCAGGGCAUCUCUGAGAGAAAUGCC [U112C U115C], the self-cleavage was 1.29. As for UACGUAGGUGGUUUUCCCCUGAUAGUGCUAAGGGGGCCUGGAAGUUUGGACUGGGCAGAGCUCAACACAGCGUGGCAAAGUGGCUGUGGCUAGACUGCCUCUCUGGAUUCCCCGUCACUCAGCAGGACAUCUCUGAGAGAAAUGCC [U112C G127A], the self-cleavage is 1.35. With UACGUAGGUGGUUUUCCCCUGAUAGUGCUAAGGGGGCCUGGAAGUUUGGACUGGGCAGAGCUCAACACAGCGUGGCAAAGUGGCUGUGGCUAGACUGCCUCUCUGGAUUCCGCGUCACUCAGCAGGGCAUCUCUGCGAGAAAUGCC [U112G A136C], the self-cleavage came out at 0.61. On to UACGUAGGUGGUUUUCCCCUGAUAGUGCUAAGGGGGCCUGGAAGUUUGGACUGGGCAGAGCUCAACACAGCGUGGCAAAGUGGCUGUGGCUAGACUGCCUCUCUGGAUUCCUUGUCCCUCAGCAGGGCAUCUCUGAGAGAAAUGCC [C113U A117C], for which the self-cleavage was determined as 1.68. In the case of UACGUAGGUGGUUUUCCCCUGAUAGUGCUAAGGGGGCCUGGAAGUUUGGACUGGGCAGAGCUCAACACAGCGUGGCAAAGUGGCUGUGGCUAGACUGCCUCUCUGGAUUCCUUGUCGCUCAGCAGGGCAUCUCUGAGAGAAAUGCC [C113U A117G] it was 1.54. In the case of UACGUAGGUGGUUUUCCCCUGAUAGUGCUAAGGGGGCCUGGAAGUUUGGACUGGGCAGAGCUCAACACAGCGUGGCAAAGUGGCUGUGGCUAGACUGCCUCUCUGGAUUCCUUGUCACUCAGCGGGGCAUCUCUGAGAGAAAUGCC [C113U A124G] it was 1.31; in that of UACGUAGGUGGUUUUCCCCUGAUAGUGCUAAGGGGGCCUGGAAGUUUGGACUGGGCAGAGCUCAACACAGCGUGGCAAAGUGGCUGUGGCUAGACUGCCUCUCUGGAUUCCCCGUCACUUAGCAGGGCAUCUCUGAGAGAAAUGCC [U112C C120U], 1.37. With UACGUAGGUGGUUUUCCCCUGAUAGUGCUAAGGGGGCCUGGAAGUUUGGACUGGGCAGAGCUCAACACAGCGUGGCAAAGUGGCUGUGGCUAGACUGCCUCUCUGGAUUCCCCGUCACUCAGCAGGGCAUCUCUGAGAGAAAGGCC [U112C U143G], the self-cleavage was determined as 1.81. For the variant UACGUAGGUGGUUUUCCCCUGAUAGUGCUAAGGGGGCCUGGAAGUUUGGACUGGGCAGAGCUCAACACAGCGUGGCAAAGUGGCUGUGGCUAGACUGCCUCUCUGGAUUCCUUGUCACUCAGCAGGGCGUCUCUGAGAGAAAUGCC [C113U A129G], the self-cleavage was found to be 1.34. In the case of UACGUAGGUGGUUUUCCCCUGAUAGUGCUAAGGGGGCCUGGAAGUUUGGACUGGGCAGAGCUCAACACAGCGUGGCAAAGUGGCUGUGGCUAGACUGCCUCUCUGGAUUCCGCGUCACUCAGCAGGGCAUCUCUGAGAGAAAUGCC [U112G], the self-cleavage is 1.28. In the case of UACGUAGGUGGUUUUCCCCUGAUAGUGCUAAGGGGGCCUGGAAGUUUGGACUGGGCAGAGCUCAACACAGCGUGGCAAAGUGGCUGUGGCUAGACUGCCUCUCUGGAUUCCCCGUCACUCAGCAGGGCAUUUCUGAGAGAAAUGCC [U112C C131U] it was 1.87; in that of UACGUAGGUGGUUUUCCCCUGAUAGUGCUAAGGGGGCCUGGAAGUUUGGACUGGGCAGAGCUCAACACAGCGUGGCAAAGUGGCUGUGGCUAGACUGCCUCUCUGGAUUCCCCGUCACUCAGCAGAGCAUCUCUGAGAGAAAUGCC [U112C G126A], 1.64; in that of UACGUAGGUGGUUUUCCCCUGAUAGUGCUAAGGGGGCCUGGAAGUUUGGACUGGGCAGAGCUCAACACAGCGUGGCAAAGUGGCUGUGGCUAGACUGCCUCUCUGGAUUCCCCGUCACUCAGCAGGGCAACUCUGAGAGAAAUGCC [U112C U130A], 1.59. On to UACGUAGGUGGUUUUCCCCUGAUAGUGCUAAGGGGGCCUGGAAGUUUGGACUGGGCAGAGCUCAACACAGCGUGGCAAAGUGGCUGUGGCUAGACUGCCUCUCUGGAUUCCCCGUCACUCAGCAGGGCAUCUCUGAGAGGAAUGCC [U112C A140G], for which the self-cleavage came out at 0.83. In the case of UACGUAGGUGGUUUUCCCCUGAUAGUGCUAAGGGGGCCUGGAAGUUUGGACUGGGCAGAGCUCAACACAGCGUGGCAAAGUGGCUGUGGCUAGACUGCCUCUCUGGAUUCCCCGUCACUCAGCAGGGCAUCUCUGAGAGAAGUGCC [U112C A142G] it was 1.43; in that of UACGUAGGUGGUUUUCCCCUGAUAGUGCUAAGGGGGCCUGGAAGUUUGGACUGGGCAGAGCUCAACACAGCGUGGCAAAGUGGCUGUGGCUAGACUGCCUCUCUGGAUUCCCCGUCACUCAGCAGGGUAUCUCUGAGAGAAAUGCC [U112C C128U], 1.35.

Turning to UACGUAGGUGGUUUUCCCCUGAUAGUGCUAAGGGGGCCUGGAAGUUUGGACUGGGCAGAGCUCAACACAGCGUGGCAAAGUGGCUGUGGCUAGACUGCCUCUCUGGAUUCCUAGUCACUCAGCAGGGCAUCCCUGAGAGAAAUGCC [C113A U132C], the self-cleavage turned out to be 1.44. With UACGUAGGUGGUUUUCCCCUGAUAGUGCUAAGGGGGCCUGGAAGUUUGGACUGGGCAGAGCUCAACACAGCGUGGCAAAGUGGCUGUGGCUAGACUGCCUCUCUGGAUUCCUGGUCACACAGCAGGGCAUCUCUGAGAGAAAUGCC [C113G U119A] the figure was 1.38; with UACGUAGGUGGUUUUCCCCUGAUAGUGCUAAGGGGGCCUGGAAGUUUGGACUGGGCAGAGCUCAACACAGCGUGGCAAAGUGGCUGUGGCUAGACUGCCUCUCUGGAUUCCUGGUCACUCAGCAUGGCAUCUCUGAGAGAAAUGCC [C113G G125U], 1.66.

For UACGUAGGUGGUUUUCCCCUGAUAGUGCUAAGGGGGCCUGGAAGUUUGGACUGGGCAGAGCUCAACACAGCGUGGCAAAGUGGCUGUGGCUAGACUGCCUCUCUGGAUUCCUGGUCACUCAGUAGGGCAUCUCUGAGAGAAAUGCC [C113G C123U], the self-cleavage turned out to be 1.01. In the case of UACGUAGGUGGUUUUCCCCUGAUAGUGCUAAGGGGGCCUGGAAGUUUGGACUGGGCAGAGCUCAACACAGCGUGGCAAAGUGGCUGUGGCUAGACUGCCUCUCUGGAUUCCGCGUCUCUCAGCAGGGCAUCUCUGAGAGAAAUGCC [U112G A117U] it was 1.92; in that of UACGUAGGUGGUUUUCCCCUGAUAGUGCUAAGGGGGCCUGGAAGUUUGGACUGGGCAGAGCUCAACACAGCGUGGCAAAGUGGCUGUGGCUAGACUGCCUCUCUGGAUUCCUAGCCACUCAGCAGGGCAUCUCUGAGAGAAAUGCC [C113A U115C], 1.5; in that of UACGUAGGUGGUUUUCCCCUGAUAGUGCUAAGGGGGCCUGGAAGUUUGGACUGGGCAGAGCUCAACACAGCGUGGCAAAGUGGCUGUGGCUAGACUGCCUCUCUGGAUUCCUAGACACUCAGCAGGGCAUCUCUGAGAGAAAUGCC [C113A U115A], 1.55.
